Test results: FireProtDB (doi:10.1006/jmbi.1998.1906)

Settings: Homo sapiens, Thermal, DSC, glycine 0.05 M, reversible: yes, whole UniProt chain shown

B1: Lysozyme C wild type, P61626 (protein)
chain: MKALIVLGLVLLSVTVQGKVFERCELARTLKRLGMDGYRGISLANWMCLAKWESGYNTRATNYNAGDRSTDYGIFQINSRYWCNDGKTPGAVNACHLSCSALLQDNIADAVACAKRVVRDPQGIRAWVAWRNRCQNRDVRQYVQGCGV
Tm (pH 2.53): 45.5 °C
unfolding enthalpy (calorimetric) (pH 2.53): 75.4 kcal/mol
unfolding enthalpy (van 't Hoff) (pH 2.53): 79.8 kcal/mol
Tm (pH 2.7): 49.2 °C
unfolding enthalpy (calorimetric) (pH 2.7): 82.5 kcal/mol
unfolding enthalpy (van 't Hoff) (pH 2.7): 85.4 kcal/mol
Tm (pH 2.81): 52 °C
unfolding enthalpy (calorimetric) (pH 2.81): 85.9 kcal/mol
unfolding enthalpy (van 't Hoff) (pH 2.81): 89.2 kcal/mol
Tm (pH 3.04): 55.4 °C
unfolding enthalpy (calorimetric) (pH 3.04): 91.6 kcal/mol
unfolding enthalpy (van 't Hoff) (pH 3.04): 95 kcal/mol
Tm (pH 3.14): 57.8 °C
unfolding enthalpy (calorimetric) (pH 3.14): 96.4 kcal/mol
unfolding enthalpy (van 't Hoff) (pH 3.14): 97.4 kcal/mol
